Measured values published in US20170029530A1 (AbbVie / Abbott, published 2017).
“And” between values parts separate entries of the source, which are not always exact repeats. Equal values may be shown once.

T1: rat DPEP3 ECD with histidine tag (rat, UniProt Q5U2X4 36-459, limits assumed)
T1 construct: also called rDPEP3-His; ratDPEP3-His; not shown: histidine tag
T1 sequence: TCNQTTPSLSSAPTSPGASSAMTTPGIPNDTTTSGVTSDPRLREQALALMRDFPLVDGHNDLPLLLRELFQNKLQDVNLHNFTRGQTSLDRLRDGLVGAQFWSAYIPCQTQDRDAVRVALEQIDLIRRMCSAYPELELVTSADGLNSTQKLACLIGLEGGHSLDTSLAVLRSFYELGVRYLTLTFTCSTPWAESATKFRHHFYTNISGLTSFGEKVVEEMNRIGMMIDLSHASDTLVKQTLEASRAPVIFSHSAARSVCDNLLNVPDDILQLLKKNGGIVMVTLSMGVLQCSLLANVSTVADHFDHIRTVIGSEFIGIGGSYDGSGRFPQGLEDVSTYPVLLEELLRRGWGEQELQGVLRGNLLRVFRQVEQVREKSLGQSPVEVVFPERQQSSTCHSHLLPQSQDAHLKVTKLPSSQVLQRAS

T2: hDPEP1-His (human, UniProt P16444 17-385, limits assumed)
T2 construct: Neither the origin nor the limits of this protein are described; not shown: histidine tag
T2 sequence (looked up): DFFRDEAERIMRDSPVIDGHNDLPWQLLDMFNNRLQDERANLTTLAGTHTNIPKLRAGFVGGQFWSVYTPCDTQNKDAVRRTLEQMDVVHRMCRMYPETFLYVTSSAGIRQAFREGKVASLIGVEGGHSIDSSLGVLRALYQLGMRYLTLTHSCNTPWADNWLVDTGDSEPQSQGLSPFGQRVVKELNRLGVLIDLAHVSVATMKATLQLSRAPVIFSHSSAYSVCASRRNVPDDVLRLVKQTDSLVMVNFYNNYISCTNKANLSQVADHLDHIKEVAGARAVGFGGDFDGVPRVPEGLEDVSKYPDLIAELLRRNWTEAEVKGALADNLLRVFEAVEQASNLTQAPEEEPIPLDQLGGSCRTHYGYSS

T3: cDPEP3 (Macaca fascicularis, UniProt Q4R7M2)
T3 construct: extracellular domain; also called cynomolgus DPEP3-His; cynomolgus DPEP3 ECD with histidine tag
T3 sequence (single chain, looked up): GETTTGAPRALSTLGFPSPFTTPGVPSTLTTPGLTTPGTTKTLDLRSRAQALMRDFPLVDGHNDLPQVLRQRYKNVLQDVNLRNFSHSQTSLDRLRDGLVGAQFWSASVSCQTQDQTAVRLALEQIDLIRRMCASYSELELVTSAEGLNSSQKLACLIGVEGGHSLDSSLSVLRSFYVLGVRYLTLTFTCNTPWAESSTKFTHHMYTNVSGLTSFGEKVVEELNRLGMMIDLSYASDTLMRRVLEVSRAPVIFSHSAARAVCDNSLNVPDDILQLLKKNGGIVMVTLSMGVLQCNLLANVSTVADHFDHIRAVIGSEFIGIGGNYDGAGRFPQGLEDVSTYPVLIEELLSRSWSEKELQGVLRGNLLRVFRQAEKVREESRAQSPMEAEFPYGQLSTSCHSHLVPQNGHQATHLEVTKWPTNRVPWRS

T4: mDPEP3 (limits assumed)
T4 construct: also called mouse DPEP3-His; mouse DPEP3 ECD with histidine tag
T4 single chain: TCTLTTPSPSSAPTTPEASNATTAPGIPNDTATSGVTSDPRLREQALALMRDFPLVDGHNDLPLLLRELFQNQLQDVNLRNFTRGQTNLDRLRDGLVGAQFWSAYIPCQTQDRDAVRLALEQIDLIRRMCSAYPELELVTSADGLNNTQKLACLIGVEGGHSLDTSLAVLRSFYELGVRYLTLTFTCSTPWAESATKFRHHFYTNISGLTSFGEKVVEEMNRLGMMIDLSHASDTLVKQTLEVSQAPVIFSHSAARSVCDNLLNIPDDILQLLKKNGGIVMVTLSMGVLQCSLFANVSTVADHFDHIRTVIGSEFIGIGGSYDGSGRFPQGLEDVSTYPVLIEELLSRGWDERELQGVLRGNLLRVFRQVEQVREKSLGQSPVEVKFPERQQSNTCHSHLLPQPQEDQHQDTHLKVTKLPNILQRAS

T5: hDPEP3-ECD-His (human, UniProt Q9H4B8 36-463)
T5 construct: also called hDPEP3-His; monomeric hDPEP3-His antigen; not shown: histidine tag
T5 sequence: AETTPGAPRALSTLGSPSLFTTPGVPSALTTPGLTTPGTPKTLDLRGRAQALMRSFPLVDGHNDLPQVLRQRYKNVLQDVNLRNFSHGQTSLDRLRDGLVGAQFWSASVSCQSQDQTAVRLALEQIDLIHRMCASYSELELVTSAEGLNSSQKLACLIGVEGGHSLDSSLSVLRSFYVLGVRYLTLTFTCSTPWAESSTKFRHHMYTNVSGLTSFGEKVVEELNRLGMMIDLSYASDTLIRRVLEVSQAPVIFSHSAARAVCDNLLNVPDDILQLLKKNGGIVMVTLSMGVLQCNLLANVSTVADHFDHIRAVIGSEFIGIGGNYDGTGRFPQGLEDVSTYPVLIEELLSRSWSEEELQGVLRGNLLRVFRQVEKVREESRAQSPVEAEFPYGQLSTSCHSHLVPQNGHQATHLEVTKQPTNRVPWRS

B1: hSC34.2 humanized anti-DPEP3 antibody (antibody, human IgG1, kappa, V domains shown)
VH: EVQLVQSGAEVKKPGESLKISCKGSGYSFTDYYINWVRQMPGKGLEWMGWTYPGSGPTKYNGKFRGQVTISADKSISTAYLQWSSLKASDTAMYYCARRGIYYYDGIYPNYFDYWGQGTTVTVSS
VL: DIQMTQSPSSLSASVGDRVTITCSASQGITNYLNWYQQKPGKAPKLLIYYTSRLHSGVPSRFSGSGSGTDFTLTISSLQPEDFATYYCQQYSKLPWTFGQGTKVEIKR
notes: Human IgG1/kappa
B2: SC34.61 (antibody, mouse IgG1, V domains shown)
VH: EVKLVESGGGLVKPGGSLKLSCAASGFTFTSYTMSWVRQTPAKRLEWVATISTGGGNTYYPDIVKGRFTISRDNARSTLYLQMSSLRSEDSAMYYCARRFYDGSYNYWYFDVWGAGTTVTVSS
VL: DIQMIQSPSSMFASLGDRVSLSCRASQGIRGNLDWYQQKPGGTIKLLIYSTSNLNSGVPSRFSGSGSGSDYSLTISSLESEDFADYYCLQRDAYPYTFGGGTKLEIK
B3: SC34.11 (antibody, mouse IgG2a, V domains shown)
VH: QVQLQQSGAELAKPGASVKMSCKASGYTFTNYWMIWVKQRPGQGLEWIGYIDPTTDYTAYNQKFKDKATVTADKSSSTAYMQLNSLTSEDSAVYYCARGGNVALDFWGQGTSVTVSS
VL: DIVMSQSPSSLAVSAGEKVTMSCKSSQSLLNSRTRKNYLAWYQQKPGQSPKLLIYWASTRESGVPDRFTGSGSGTDFTLTISSVQAEDLAVYYCKESYNLWTFGGGTKLEIK
B4: hSC34.11 humanized anti-DPEP3 antibody (antibody, human IgG1, kappa, V domains shown)
VH: EVQLVQSGAEVKKPGESLKISCKGSGYSFTNYWMIWVRQMPGKGLEWMGYIDPTTDYTAYNQKFKDQVTISADKSISTAYLQWSSLKASDTAMYYCARGGNVALDFWGQGTLVTVSS
VL: DIQMTQSPSSLSASVGDRVTITCKSSQSLLNSRTRKNYLAWYQQKPGKVPKLLIYWASTRESGVPSRFSGSGSGTDFTLTISSLQPEDVATYYCKESYNLWTFGGGTKVEIKR
notes: Human IgG1/kappa; The order is confirmed for hSC34.2 and hSC34.28
B5: SC34.46 (antibody, mouse IgG1, V domains shown)
VH: QVQLQQSGTELARPGTSVKLSCKASGYTFRSYAISWVRQRTGQGLEWIGEIYPGSDKTYYNESLKGKVTLTTDKCSSTANMQLTSLTSEDSAVYFCARVHDYGSWFPYWGQGTLVTVSA
VL: DIVMSQSPSSLAVSVGEKVTMSCKSSQSLLYSKYQKNFLAWYQQKPGQSPKLLIYWASTRESGVPDRFTGSGSGTDFTLTISNVKAEDLAVYYCQQYYRYPLTFGAGTTLELK
B6: hSC34.25 humanized anti-DPEP3 antibody (antibody, human IgG1, kappa, V domains shown)
VH: QVQLVQSGAEVKKPGASVKVSCKASGYTFTSYAISWVRQAPGQRLEWMGEIYPGSGETYYNEKFKGRVTITRDTSASTAYMELSSLRSEDTAVYYCARVNDYGSWFPYWGQGTLVTVSS
VL: DIVMTQSPDSLAVSLGERATINCKSSQSLLYSRYQKNYVAWYQQKPGQPPKLLIYWASTRESGVPDRFSGSGSGTDFTLTISSLQAEDVAVYYCQQYYRYPLTFGQGTKLEIKR
notes: Human IgG1/kappa
B7: hSC34.87 humanized anti-DPEP3 antibody (antibody, human IgG1, kappa, V domains shown)
VH: QVQLVQSGAEVKKPGASVKVSCKASGYTFTSYWMLWVRQAPGQRLEWMGYIDPRNGYTEYNQKFKDRVTITRDTSASTAYMELSSLRSEDTAVYYCARGGNVAMDYWGQGTLVTVSS
VL: DIVMTQSPDSLAVSLGERATINCKSSQSLLNSRTRKNYLAWYQQKPGQPPKLLIYWASTRESGVPDRFSGSGSGTDFTLTISSLQAEDVAVYYCKQSYNLWTFGGGTKLEIKR
notes: Human IgG1/kappa
B8: hSC34.28 humanized anti-DPEP3 antibody (antibody, human IgG1, kappa, V domains shown)
VH: QVQLVQSGAEVKKPGSSVKVSCKASGGTFSSYWIEWVRQAPGQGLEWMGEILPGSGNTYYNERFKDRVTITADESTSTAYMELSSLRSEDTAVYYCARRAAAYYSNPEWFAYWGQGTLVTVSS
VL: EIVLTQSPATLSLSPGERATLSCTASSSVNSFYLHWYQQKPGLAPRLLIYSTSNLASGIPDRFSGSGSGTDFTLTISRLEPEDFAVYYCHQYHRSPYTFGQGTKLEIKR
notes: Human IgG1/kappa
B9: hSC34.38 humanized anti-DPEP3 antibody (antibody, human IgG1, kappa, V domains shown)
VH: EVQLVQSGAEVKKPGESLKISCKGSGYSFTSYYMYWVRQMPGKGLEWMGEINPSNGGANFNERFKNQVTISADKSISTAYLQWSSLKASDTAMYYCTRGLLYYDYDRGFAYWGQGTLVTVSS
VL: DVVMTQSPLSLPVTLGQPASISCKSSQSLLYSNRRTYLNWFQQRPGQSPRRLIYLVSKLDSGVPDRFSGSGSGTDFTLKISRVEAEDVGVYYCVQGTHFPFTFGQGTKLEIKR
notes: Human IgG1/kappa

How the values were obtained:
[1] = biological target: T1, rat DPEP3 ECD with histidine tag; experiment: SPR, BIAcore 2000, antibody captured with anti-human capture kit
hDPEP1-His = biological target: T2, hDPEP1-His; experiment: as above
cDPEP3 = biological target: T3, cDPEP3; experiment: ELISA, coated antigen
mDPEP3 = biological target: T4, mDPEP3; experiment: ELISA, coated antigen
[2] = biological target: T1, rat DPEP3 ECD with histidine tag; experiment: ELISA, coated antigen
[3] = biological target: T6, hDPEP2 ECD with histidine tag (human, UniProt Q9H4A9 33-463); experiment: ELISA, coated antigen
T6 construct: also called hDPEP2-His; not shown: histidine tag
T6 sequence (Q9H4A9 33-463): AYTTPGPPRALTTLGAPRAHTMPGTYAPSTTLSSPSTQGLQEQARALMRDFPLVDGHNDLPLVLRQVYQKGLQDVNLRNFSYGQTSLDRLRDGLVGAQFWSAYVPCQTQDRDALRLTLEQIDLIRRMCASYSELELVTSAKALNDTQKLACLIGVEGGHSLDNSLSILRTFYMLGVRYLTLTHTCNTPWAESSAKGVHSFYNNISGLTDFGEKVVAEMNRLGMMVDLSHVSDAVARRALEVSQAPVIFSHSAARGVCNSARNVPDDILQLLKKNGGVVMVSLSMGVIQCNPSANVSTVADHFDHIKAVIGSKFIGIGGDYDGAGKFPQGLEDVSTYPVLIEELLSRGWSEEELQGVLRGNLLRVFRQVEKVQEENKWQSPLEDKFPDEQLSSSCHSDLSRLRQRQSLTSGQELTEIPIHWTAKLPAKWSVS

hDPEP3-ECD-His = biological target: T5, hDPEP3-ECD-His; experiment: BLI ForteBio RED, 200 nM hDPEP3-His, estimated grade
Summary of the method: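 Antibodies were captured on anti-mouse Fc biosensors to 0.3-1 units, then exposed to hDPEP3-His for a 4 min association and a 3 min dissociation at 1000 rpm. A control mouse IgG response was subtracted, and KD was estimated qualitatively from the curves. Sensors were regenerated with 10 mM glycine, pH 1.7.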

[4] = biological target: T6, hDPEP2 ECD with histidine tag; experiment: ELISA, coated antigen, antibody 1 ug/mL
Protocol: The anti-DPEP3 antibodies were screened by ELISA for cross-reactivity with mouse, rat and cynomolgus DPEP3 and for cross reactivity to hDPEP2, the closest DPEP3 family member. ELISA was conducted as follows. Plates were coated with purified mouse, rat or cynomolgus DPEP3-His or hDPEP2-His at 0.3 μg/mL in 0.2 M carbonate-bicarbonate buffer, pH 9.4 overnight at 4° C. The protein solution was removed and the wells were blocked with 1% (w/v) BSA in PBS (PBSA), 100 μL/well for 1 hour at 37° C. Anti-DPEP3 antibody or a mouse isotype control antibody was then added at 1 μg/mL in 50 μL PBSA for 1 hour at room temperature. After washing with water, 50 μL/well HRP-labeled goat anti-mouse IgG antibody diluted 1:10,000 in PBSA was added for 30 min at room temperature. The plates were washed and developed by the addition of 40 μL/well of the TMB substrate solution (Thermo Scientific) at room temperature. An equal volume of 0.2 M H₂SO₄ was added to stop substrate development. The samples were then analyzed by spectrophotometer at OD 450. […] The cross reactivity results for exemplary DPEP3-specific antibodies can be seen in FIG. 4.

Row | Binder | binding result [1] | binding result (hDPEP1-His) | Kd (hDPEP3-ECD-His) | also measured
1 | B1 | no binding | no binding | – | –
2 | B2 | – | – | > 10 nM | binding result (cDPEP3): no binding (tested: 1 ug/mL); binding result (mDPEP3): no binding (tested: 1 ug/mL); binding result [2]: no binding (tested: 1 ug/mL); binding result [3]: no binding (tested: 1 ug/mL)
3 | B3 | – | – | ≥ 5 nM and ≤ 10 nM | binding result (cDPEP3): no binding (tested: 1 ug/mL); binding result (mDPEP3): no binding (tested: 1 ug/mL); binding result [2]: no binding (tested: 1 ug/mL); binding result [4]: binds
4 | B4 | no binding | no binding | – | –
5 | B5 | – | – | < 5 nM | binding result [4]: binds
6 | B6 | no binding | no binding | – | –
7 | B7 | no binding | no binding | – | –
8 | B8 | no binding | no binding | – | –
9 | B9 | no binding | no binding | – | –
